From patent US20040208887A1 (MOLECULES OF MAN, published 2004)

B1: Fab clone 2a-40 (Fab, V domains shown)
VH: VQLLEQSGGGLVKPGGSLRLSCTASGFTFSGFTFSDHYMSWIRQAPGKGLELVSYIISNGYTNYPDSVKGRFTVSRDNARKSLYLQMNSLRVEDTAIYYCARGLSPSIAGDGFDIWGQGTMVTVSS
VL: AELTQSPAFMSATPGDKVNISCKASQDIDDDMNWYQQKPGEAAIFIIQEATTLVPGIPPRFSGSGYGTDFTLTINNIESEDAAYYFCLQHDNFPLTFGQGTKVEIK
notes: Human Fab (gamma1 Fd + kappa), crude periplasmic preparation, approx. 1.0 ug Fab/ml
B2: Fab clone 2a-4 (Fab, V domains shown)
VH: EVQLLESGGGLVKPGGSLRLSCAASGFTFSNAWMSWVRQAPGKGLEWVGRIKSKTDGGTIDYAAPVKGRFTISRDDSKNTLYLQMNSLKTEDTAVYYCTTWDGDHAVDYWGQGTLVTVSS
VL: AELTQSPSSLSASIGDRVAISCQASQDIGNYLNWYQQKPGKAPRLLIYDASNLEAGVPSRFSGSGSGTDFTLTISTLQPEDFATFYCQQTDSTPYTFGQGTKLEIR
notes: as for B1
B3: Fab clone 2a-23 (Fab, V domains shown)
VH: EVQLLESGAGVVQPGKSLTLSCVGSGFTFSIYAMHWVRQAPGKGLEWVAVLSSDGSNDYYADSVKGRFSIFRDTSKNSLNLLMNNVRGEDTAVYYCARDGDGSFFYWGQGTLVTVSS
VL: AELTQSPAFMSATPGDKVNISCKASQDIDDDMNWYQQKPGEAAIFIIQEATTLVPGIPPRFSGSGYGTDFTLTINNIESEDAAYYFCLQHDNFPLTFGQGTKVEIK
notes: Human Fab (gamma1 Fd + kappa), crude periplasmic preparation, approx. 0.50 ug Fab/ml
B4: Fab clone 2b-17 (Fab, V domains shown)
VH: EVQLLESGGGLVQPGRSLRLSCAASGFTFSNSDMHWVRQAPGKGLEWVTVSSRDGYDNYYADSVRGRFTISRDNSKNTLYLQMNTLRAEDTAVYYCAKRRGYAFDIWGQGTMVTVSS
VL: AELTQSPSSLSASVGDRVTITCRASQSINTYLNWYQQKPGKAPELLIYGASSLQSGVPSRFSGSGSGTDFTLTITSLQAEDFASYFCQQSDSTPRTFGQGTKVEIK
notes: Human Fab (gamma1 Fd + kappa), crude periplasmic preparation, approx. 0.16 ug Fab/ml
B5: Fab clone 13 (Fab, V domains shown)
VH: EVQLLESGGGLVQPGRSLRLSCAASGFTFDDYGMHWVRQAPGKGLEWVSGLSWNSDNIGYADSVKGRFTISRDNAKNSLYLQMNSLKIEDTAFYYCAKAPRTLRFLEWHNVYFDLWGRGTLVTVSS
VL: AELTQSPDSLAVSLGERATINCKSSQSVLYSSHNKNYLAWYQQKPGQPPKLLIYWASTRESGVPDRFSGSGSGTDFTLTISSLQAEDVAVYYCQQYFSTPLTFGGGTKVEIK
notes: Human Fab (gamma1 Fd + kappa light chain), tested as a crude periplasmic preparation, approx. >3 ug Fab/ml
B6: Fab clone 2a-25 (Fab, V domains shown)
VH: VQLLEQSGAEVKKPGASVKVSCKASGYMFTCYYMHWVRQAPGQGLEWMGMVNPTGGSSSYAQKFQGRVTMTKGHVTSTVYMELSSLRSEDTAVYYCATGMVRGDEWGQGTLVTVSS
VL: AELTQSPSFSSASVGDRVTITCRASHGISSHLAWFQHKPGKAPNLLIYAASTLQSGVPSRFSGSQSGTEFTLTITSLHPEDFATYYCQQLYTWPMGFGQGTRLEIT
notes: Human Fab (gamma1 Fd + kappa), crude periplasmic preparation, approx. 0.11 ug Fab/ml
B7: Fab clone 2b-9 (Fab, V domains shown)
VH: LLESGPGLVQPSQTLSLTYAISGDSVSSNSAAWTWIRQSPSRGLEWLGMTYYRSQWYHEYAVSLKSRITINADTSNNQFSLQVNSVTPEDTALYYCARARFVGDTTGYYTFDYWGQGTLVTVSS
VL: AELTQSPGTLSLSPGERGTLSCRASQSVSSSYLAWYQQKAGQAPRLLIYGASSRATGIPDRFSGSGSGTDFTLTISRLEPEDFAVYYCQRYGTSPKTFGQGTKVEFK
notes: Human Fab (gamma1 Fd + kappa), crude periplasmic preparation, approx. 0.19 ug Fab/ml
B8: Fab clone 2a-13 (Fab, V domains shown)
VH: EVQLLESGPGLVKPSETLSLTCTVSGGSISDYYWSWIRQPPGKGLEWIGHTYDNGGTKYNPSLKSRASISVDTSKNQVSLRLTSVTAADTAVYYCATAFLDNSGWYTFDSWGQGSLVTV
VL: AELTQSPSSVSASVRDRVTITCRASQGISTWLAWYQQKPGKAPKLLIYAASTLQSGVPSRFSGSGSGTDFTLTIGSLQPEDVATYYCQQANSFPPGALTFGGGTKVEVK
notes: Human Fab (gamma1 Fd + kappa), crude periplasmic preparation, approx. 0.36 ug Fab/ml
B9: Fab clone 98 (Fab, V domains shown)
VH: EVQLLEQSGAEVKKPGESLRISCRGSGYSFPNYWVSWVRQMPGKGLEWMGKIDPSDSETNYSPSFQGHVTISADKSLSIAYLQWNSLKASDTAMYHCARHKRGAPTYKDILTGYYVDGMDVWGQGTTDTVSS
VL: AELTQSPSSLSASVGDRVTITCQASPDISNYLNWYQQKPGKAPNLLIYGASSLQRGVPSRLSGSGSGTDFTLTIDSLQPEDFATYYCQQSYGSPHTFGQGTKVEIK
notes: Human Fab (gamma1 Fd + kappa light chain), tested as a crude periplasmic preparation, approx. 5 ug Fab/ml

What follows are binders tested against T1, recombinant E1/E2 heterodimer protein (genotype 1a) (hepatitis C virus genotype 1a, UniProt P26664 192-383; P26664 384-746, limits assumed) (assay: ELISA, E1/E2 heterodimer coated; crude periplasmic Fab).
T1 construct: also called E1/E2 in complex; recombinant E1/E2 antigen
T1 sequence (P26664 192-383 limits assumed, chain 1 of 2): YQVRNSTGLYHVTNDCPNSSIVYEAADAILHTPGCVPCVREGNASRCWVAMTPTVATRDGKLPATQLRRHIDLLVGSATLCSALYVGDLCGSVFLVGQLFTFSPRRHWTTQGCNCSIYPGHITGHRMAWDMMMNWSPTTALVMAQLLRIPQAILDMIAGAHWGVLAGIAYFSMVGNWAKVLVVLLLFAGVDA
T1 sequence (P26664 384-746 limits assumed, chain 2 of 2): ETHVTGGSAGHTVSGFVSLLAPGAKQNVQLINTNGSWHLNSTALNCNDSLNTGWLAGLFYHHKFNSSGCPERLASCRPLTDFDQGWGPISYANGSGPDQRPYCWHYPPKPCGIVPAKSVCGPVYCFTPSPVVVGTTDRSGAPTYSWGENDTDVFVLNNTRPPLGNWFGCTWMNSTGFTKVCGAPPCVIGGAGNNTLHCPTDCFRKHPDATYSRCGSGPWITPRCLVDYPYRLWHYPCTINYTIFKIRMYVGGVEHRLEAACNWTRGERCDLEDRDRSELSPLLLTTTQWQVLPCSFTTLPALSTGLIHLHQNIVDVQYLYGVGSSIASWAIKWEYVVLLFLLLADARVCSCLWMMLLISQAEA
B1 showed an OD405 nm of 0.17 OD405 nm.

These binders were tested against T2, recombinant soluble HCV E1 protein (hepatitis C virus) (assay: ELISA, recombinant E1 captured on GNA lectin; crude periplasmic Fab).
T2 construct: It is not the cell-surface E1-myc construct (aa 174-359 of H77c) that was used for phage selection; also called recombinant E1; soluble E1 protein
Binder B2 has an OD405 nm of 1.18 OD405 nm.
B3 gave an OD405 nm of 1.47 OD405 nm.
Work on B4 yielded an OD405 nm of 0.24 OD405 nm.
B5 showed an OD405 nm of 0.2 OD405 nm.
Binder B6 has an OD405 nm of 1.46 OD405 nm.
Binder B7 has an OD405 nm of 0.33 OD405 nm.
B8 showed an OD405 nm of 1.05 OD405 nm.
Work on B9 yielded an OD405 nm of 0.2 OD405 nm.
